Source: article PMC2156165

Target: γ-tubulin of pig brain γ-tubulin complexes (pig (endogenous in brain))
Test: quantitative immunoblot of the purified complexes

- abundance of 76p against γ-tubulin in the purified complexes: 5 fold
Substance: 76p of pig brain γ-tubulin complexes (76-kD polypeptide, pig orthologue of h76p = hGCP4) (natural protein)
